In paper PMC3553982 (Nucleic Acids Research, 2012):
One block for each molecule: values may come before it.

Columns and labels:
[1] = target: 5-FAM labeled Rim1 (FAM-Rim1) (S. cerevisiae) (UniProt P32445); assay: fluorescence polarisation
[2] = target: 5-FAM labeled Rim1ΔC18 (FAM-Rim1ΔC18) (S. cerevisiae) (UniProt P32445); assay: fluorescence polarisation
[3] = target: Rim1ΔC18 (S. cerevisiae) (UniProt P32445); assay: pull-down
[4] = target: Human mitochondrial SSB (HsmtSSB) (human) (UniProt Q04837); assay: pull-down
Chain of Human mitochondrial SSB (HsmtSSB) (human) (Q04837 17-148): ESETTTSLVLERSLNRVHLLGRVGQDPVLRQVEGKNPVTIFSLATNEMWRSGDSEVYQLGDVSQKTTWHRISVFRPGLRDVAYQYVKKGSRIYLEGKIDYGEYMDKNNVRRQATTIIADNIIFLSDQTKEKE

[5] = target: the molecule itself; assay: SEC-MALS
[6] = target: T1, Rim1ΔC18 (Saccharomyces cerevisiae, UniProt P32445 18-117, del118-135); assay: fluorescence anisotropy
T1 sequence: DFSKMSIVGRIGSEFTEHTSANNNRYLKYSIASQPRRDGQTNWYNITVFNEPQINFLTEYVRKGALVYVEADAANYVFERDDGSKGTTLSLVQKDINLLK

[7] = target: T2, Rim1 (Saccharomyces cerevisiae, UniProt P32445 18-135); assay: fluorescence anisotropy
T2 sequence: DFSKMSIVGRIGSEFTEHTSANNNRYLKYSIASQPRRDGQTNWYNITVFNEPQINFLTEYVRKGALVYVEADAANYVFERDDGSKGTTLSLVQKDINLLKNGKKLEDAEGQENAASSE

- Kd [1]: 690 nM
- Kd [2]: 2500 nM
- relative amount of Pif1 co-precipitated (Pif1 bound to Rim1 taken as 1) [3]: 0.45
- relative amount of Pif1 co-precipitated (Pif1 bound to Rim1 taken as 1) [4]: 0.63
Molecule: Pif1 (recombinant, nuclear form) (from UniProt P07271 46-859) (enzyme)

B1: Rim1ΔC18 (domain or fragment, S. cerevisiae, UniProt P32445 18-117, looked up)
chain: T1 sequence
- stoichiometry N [5]: 4

B2: 3'F-T70 (ssDNA)
DNA: TTTTTTTTTTTTTTTTTTTTTTTTTTTTTTTTTTTTTTTTTTTTTTTTTTTTTTTTTTTTTTTTTTTTTT
- Kd [6]: < 1 nM
- Kd [7]: < 1 nM
